Values belong to the molecule of their own block, whether it stands above or below them.
What was measured:
[1] = biological target: human PlGF-1 comprising amino acids 1-137 produced in human embryonic kidney cells (human) (UniProt P49763); assay: Format 1 …, capture 2-826-335, detection 1-255-713; sFlt-1 77 pmol/L (ratio 2.5)
[2] = biological target: human PlGF-1 comprising amino acids 1-137 produced in human embryonic kidney cells (human) (UniProt P49763); assay: Format 1 …, capture 2-826-335, detection 1-255-713; sFlt-1 9200 pmol/L (ratio 300)
[3] = biological target: human PlGF-1 comprising amino acids 1-137 produced in human embryonic kidney cells (human) (UniProt P49763); assay: Format 2 …, capture MAb264, detection Pb264; sFlt-1 77 pmol/L (ratio 2.5)
[4] = biological target: human PlGF-1 comprising amino acids 1-137 produced in human embryonic kidney cells (human) (UniProt P49763); assay: Format 1 …, capture 2-826-335, detection 1-255-713; sFlt-1 613 pmol/L (ratio 20)
[5] = biological target: T1, CHO human PlGF-1 fragment (comprising amino acids 17-131; ATCC PTA-8540) (human, UniProt P49763 35-221); assay: … sandwich, capture MAb826, detection pAb264; antigen 15 pg/mL
T1 sequence: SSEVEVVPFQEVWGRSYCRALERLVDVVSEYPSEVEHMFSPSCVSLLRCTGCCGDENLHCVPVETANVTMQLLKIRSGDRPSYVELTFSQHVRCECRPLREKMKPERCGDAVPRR

[6] = biological target: T2, human PlGF-1 comprising amino acids 1-137 produced in human embryonic kidney cells (human, UniProt P49763 19-221); assay: … sandwich, capture MAb826, detection pAb264; antigen 250 pg/mL
T2 construct: Mature human PlGF-1 with 6xHis tag; also called HEK (1-137); full length HEK human PlGF-1 (1-137)
T2 sequence: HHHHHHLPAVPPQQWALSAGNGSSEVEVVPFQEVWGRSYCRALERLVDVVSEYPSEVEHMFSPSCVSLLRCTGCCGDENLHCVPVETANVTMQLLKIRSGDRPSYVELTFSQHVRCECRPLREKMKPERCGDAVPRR

[7] = biological target: T3, CHO human PlGF-1 comprising amino acids 1-137 (human PlGF-1-His (1-131), CHO 6305) (human, UniProt P49763 19-221, N-glycans at N21 (completely glycosylated) and N89 (partially glycosylated)); assay: as above
T3 construct: Mature human PlGF-1 with 6xHis tag (137 amino acids); also called CHO (1-137)
T3 sequence: T2 sequence

[8] = biological target: T4, human PlGF-1 fragment (comprising amino acids 17-131) produced in human embryonic kidney cells (human, UniProt P49763 35-221); assay: as above
T4 sequence: T1 sequence

[9] = biological target: T1, CHO human PlGF-1 fragment (comprising …); assay: as above
[10] = biological target: recombinant human PlGF-1 (comprising amino acids 1-131) expressed in E. coli (R&D Systems) (human) (UniProt P49763); assay: … sandwich, capture MAb255, detection pAb264; antigen 1500 pg/mL
[11] = biological target: recombinant human PlGF-1 (comprising amino acids 1-131) expressed in E. coli (R&D Systems) (human) (UniProt P49763); assay: … sandwich, capture MAb255, detection pAb264; antigen 250 pg/mL
[12] = biological target: T2, human PlGF-1 comprising amino acids …; assay: … sandwich, capture MAb255, detection MAb826; antigen 750 pg/mL
In short: (§1)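 Human PlGF-1 antigen preparations, including recombinant forms expressed in CHO cells, were tested at 0 to 1500 pg/mL in a sandwich immunoassay. The capture antibody was a monoclonal anti-human PlGF-1 antibody immobilized on magnetic microparticles by passive coating and EDAC cross-linking. Detection used an acridinium ester-labeled monoclonal anti-human PlGF-1 antibody. Signal was recorded as chemiluminescent relative light units (RLU) at each antigen level.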

[13] = biological target: T3, CHO human PlGF-1 comprising amino acids …; assay: as above
In short: as §1

[14] = biological target: T4, human PlGF-1 fragment (comprising amino …); assay: as above
In short: as §1

[15] = biological target: T2, human PlGF-1 comprising amino acids …; assay: … sandwich, capture MAb255, detection pAb264; antigen 15 pg/mL
[16] = biological target: T3, CHO human PlGF-1 comprising amino acids …; assay: as above
[17] = biological target: T4, human PlGF-1 fragment (comprising amino …); assay: as above
[18] = biological target: T1, CHO human PlGF-1 fragment (comprising …); assay: as above

% Inhibition [1]: 41.9%
PlGF-1 Measured [1]: 594 pg/mL
% Inhibition [2]: 95.9%
PlGF-1 Measured [2]: 42.1 pg/mL
% Inhibition [3]: 37.2%
PlGF-1 Measured [3]: 494 pg/mL
% Inhibition [4]: 88.3%
PlGF-1 Measured [4]: 120 pg/mL
Molecule: native sFlt-1, isolated from human placental tissue (from UniProt P17948 27-687) (receptor)

RLU [5]: 11200 RLU
RLU [6]: 173000 RLU
RLU [7]: 66100 RLU
RLU [8]: 126000 RLU
RLU [9]: 93600 RLU
B1: monoclonal antibody 2-826-335 (produced by murine hybridoma cell line 2-826-335, ATCC PTA-8539) (antibody, mouse IgG1, V domains shown)
VH: QVQLKQSGPGLVQPSQSLSITCTVSGFSLTTYGIHWVRQSPGKGLEWLGVMWSGGDTDYDAAFISRLSISKDNSKSQVFFKMNSLQANDTGIYYCARYRFYGMDYWGQGTSVTVSS
VL: AIQMTQSSSSFSVSLGDRVTITCKASEDIYNRFAWYQQKPGNAPRLLISGAASLEAGVPSRFSGSGSGQDYTLSITSLQTEDVATYYCQQYWSTPWTFGGGTKLEIKR
notes: also called MAb826

RLU [10]: 2.19e+06 RLU
RLU [11]: 543000 RLU
RLU [12]: 890000 RLU
RLU [13]: 400000 RLU
RLU [14]: 576000 RLU
RLU [15]: 46700 RLU
RLU [16]: 26400 RLU
RLU [17]: 32900 RLU
RLU [18]: 28700 RLU
B2: monoclonal antibody 1-255-713 (produced by murine hybridoma cell line 1-255-713, ATCC PTA-8536) (antibody, mouse IgG2a, V domains shown)
VH: QVHLQQSGAELMKPGASVKISCKATGYTFSSYWIEWVKQRPGHGLEWIGEILPGSVSNNFNEKFKDKATLTADPSSNTAYIQVSSLTSEDSAVYYCARSTGFYYGGNYFDHWGQGTTLAVSS
VL: DVVMTQTPLSLPVSPGDQASISCRSSQSLVHSNGHTYLHWYLQKPGQSPKLLIYKVSNRFSGVPDRVSGSGSGTDFTLKISRVEAEDLGVYFCSQSTHVPPTFGGGTKLEIKR
notes: also called MAb255

From patent US20100015637A1 (AbbVie / Abbott, published 2010)
